Earlier results in article PMC9428257.
Where “and” joins values, the source holds several entries; their conditions need not be identical. Identical values can stand only once. Like-named read-outs stand apart in the source and are kept apart here.

Tests used:
APRIL (Homo sapiens) [1] = biological target: APRIL (Homo sapiens) (UniProt O75888)
BAFF (Homo sapiens) = BAFF (Homo sapiens) (UniProt Q9Y275)
APRIL (Homo sapiens) [2] = biological target: APRIL (Homo sapiens) (UniProt O75888); remark: listed apart in the source

Sequence of APRIL (Homo sapiens) (O75888 105-250): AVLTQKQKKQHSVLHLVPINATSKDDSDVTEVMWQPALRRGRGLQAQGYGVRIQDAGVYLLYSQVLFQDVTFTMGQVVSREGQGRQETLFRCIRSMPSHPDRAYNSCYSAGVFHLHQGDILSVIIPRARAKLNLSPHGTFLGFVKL
Sequence of sBCMA ECD (Q02223 78-184): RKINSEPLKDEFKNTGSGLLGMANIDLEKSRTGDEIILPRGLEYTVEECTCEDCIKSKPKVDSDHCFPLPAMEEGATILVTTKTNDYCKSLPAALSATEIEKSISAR
Sequence of sTACI-Fc ECD (O14836 1-165): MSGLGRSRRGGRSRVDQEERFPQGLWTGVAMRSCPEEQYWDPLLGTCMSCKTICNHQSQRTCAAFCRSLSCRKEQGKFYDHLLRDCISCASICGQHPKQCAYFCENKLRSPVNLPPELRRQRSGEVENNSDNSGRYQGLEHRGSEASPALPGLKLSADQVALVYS

Row | Kd (APRIL (Homo sapiens) [1]) | Kd (BAFF (Homo sapiens)) [nM] | Kd (APRIL (Homo sapiens) [2]) [nM] | Substance
1 | 0.025 nM and 0.048 nM |  |  | sBCMA ECD (from UniProt Q02223)
2 |  | 0.16 | 6.4 | sTACI-Fc ECD (from UniProt O14836)
